Substitutions are numbered along the chain they refer to.

10 molecules from patent US20250076311A1 (Chugai, published 2025) can be followed below.

Test [1] concerns the target T1, cynomolgus monkey FcγRIIa3 extracellular domain with C-terminal His-tag (cynomolgus monkey).
T1 construct: also called cyno FcgRIIa3; cynoFcγRIIa3; not shown: His-tag added to the C-terminus
T1 chain: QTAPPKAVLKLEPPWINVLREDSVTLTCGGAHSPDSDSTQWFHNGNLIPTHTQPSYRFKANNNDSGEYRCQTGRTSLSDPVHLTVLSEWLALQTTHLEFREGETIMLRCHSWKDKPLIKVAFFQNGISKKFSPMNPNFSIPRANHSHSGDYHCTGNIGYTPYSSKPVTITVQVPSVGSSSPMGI
In words: SPR (BIACORE); KD of SG1 / KD of variant. In general terms: SPR reads the build-up and loss of mass on a sensor chip optically.

For test [2], the target named is T2, cynomolgus monkey FcγRIIb extracellular domain with C-terminal His-tag (cynomolgus monkey).
T2 construct: also called cyno FcgRIIb; cynoFcγRIIb; not shown: His-tag added to the C-terminus
T2 chain: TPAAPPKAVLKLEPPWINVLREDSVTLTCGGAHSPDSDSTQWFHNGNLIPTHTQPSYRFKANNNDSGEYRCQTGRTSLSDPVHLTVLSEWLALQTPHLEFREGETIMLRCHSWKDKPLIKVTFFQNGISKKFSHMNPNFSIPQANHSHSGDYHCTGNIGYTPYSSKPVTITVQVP
Kind of test: SPR (BIACORE); KD of SG1 / KD of variant.

Test [3] has as its target T3, cynomolgus monkey FcγRIIIaS extracellular domain with C-terminal His-tag (cynomolgus monkey, UniProt A3RFZ7 21-206 (rhesus entry)).
T3 construct: also called cyno FcgRIIIaS; cynoFcγRIIIaS; not shown: His-tag added to the C-terminus
Kind of test: SPR (BIACORE); KD of SG1 / KD of variant.

Test [4] deals with T4, human FcγRIIaH extracellular domain with C-terminal His-tag (human, UniProt P12318 34-217).
T4 construct: also called human FcgRIIaH; FcγRIIa type H; not shown: His-tag added to the C-terminus
T4 sequence: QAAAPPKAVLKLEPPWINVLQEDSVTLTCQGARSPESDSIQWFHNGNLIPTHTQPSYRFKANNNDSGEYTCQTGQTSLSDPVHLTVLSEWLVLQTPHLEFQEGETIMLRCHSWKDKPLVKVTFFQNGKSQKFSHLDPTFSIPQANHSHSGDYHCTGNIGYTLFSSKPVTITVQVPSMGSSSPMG
Kind of test: SPR (BIACORE); KD of SG1 / KD of variant.

The target in test [5] is T3, cynomolgus monkey FcγRIIIaS …. Kind of test: SPR (BIACORE), antibody captured, FcgR analyte.
Test [6] concerns the target T5, cynomolgus monkey FcγRIIa1 extracellular domain with C-terminal His-tag (cynomolgus monkey).
T5 construct: also called cyno FcgRIIa1; cynoFcγRIIa1
T5 chain: T1 chain with T95P, A121T, S128A, P133H, N135D
Kind of test: SPR (Biacore), KD of SG1 / KD of variant.

Test [7] has as its target T6, human FcγRIIaH extracellular domain with C-terminal His-tag (human, UniProt P12318 34-217).
T6 construct: also called human FcgRIIaH; FcγRIIa (type H)
T6 sequence: T4 sequence
In words: SPR (Biacore), KD of SG1 / KD of variant.

The target of test [8] is T7, cynomolgus monkey FcγRIIIaS extracellular domain with C-terminal His-tag (cynomolgus monkey, UniProt Q8SPW2 21-206 at identity 1.00)).
T7 construct: also called cyno FcgRIIIaS; cynoFcγRIIIaS
T7 chain: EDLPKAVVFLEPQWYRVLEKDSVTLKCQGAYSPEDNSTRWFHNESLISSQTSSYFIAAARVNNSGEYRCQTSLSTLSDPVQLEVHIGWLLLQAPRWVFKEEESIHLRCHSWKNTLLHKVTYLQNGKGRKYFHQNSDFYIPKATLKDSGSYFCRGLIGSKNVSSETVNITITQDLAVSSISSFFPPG
In words: SPR (Biacore), antibody captured, FcgR analyte.

Test [9] concerns the target T8, cynomolgus monkey FcγRIIa2 extracellular domain with C-terminal His-tag (cynomolgus monkey).
T8 construct: also called cyno FcgRIIa2; cynoFcγRIIa2
T8 chain: T1 chain with I127K, K130N, P133H, R142Q
Kind of test: SPR (Biacore), KD of SG1 / KD of variant.

In test [10] the target is T9, cynomolgus monkey FcγRIIa3 extracellular domain with C-terminal His-tag (cynomolgus monkey).
T9 construct: also called cyno FcgRIIa3; cynoFcγRIIa3
T9 chain: T1 chain
In words: SPR (Biacore), antibody captured, FcgR analyte.

Test [11] deals with T10, cynomolgus monkey FcγRIIa1 extracellular domain with C-terminal His-tag (cynomolgus monkey).
T10 construct: also called cyno FcgRIIa1; cynoFcγRIIa1; not shown: His-tag added to the C-terminus
T10 chain: T1 chain with T95P, A121T, S128A, P133H, N135D
In words: SPR (BIACORE), antibody captured, FcgR analyte.

For test [12], the target named is T4, human FcγRIIaH extracellular domain …. In words: SPR (BIACORE), antibody captured, FcgR analyte.
The target in test [13] is T11, human FcγRIIaR extracellular domain with C-terminal His-tag (human, UniProt P12318 34-217).
T11 construct: also called human FcgRIIaR; FcγRIIa (type R)
T11 chain: T4 sequence with H134R
In words: SPR (Biacore), KD of SG1 divided by KD of variant. As to the method: (§1) The kinetic analysis of interactions between these antibodies and FcγR was carried out using BIACORE® T200 or BIACORE® 4000 (GE Healthcare). HBS-EP+ (GE Healthcare) was used as the running buffer, and the measurement temperature was set to 25° C. […] After the measurement, the antibody captured on the chip was washed off by allowing reaction with 10 mM glycine-HCl, pH1.5 and 25 mM NaOH so that the chip was regenerated and used repeatedly. The sensorgrams obtained as measurement results were analyzed by the 1:1 Langmuir binding model using the BIACORE® Evaluation Software to calculate the binding rate constant ka (L/mol/s) and dissociation rate constant kd (1/s), and the dissociation constant KD (mol/L) was calculated from these values. […] Regarding such interactions, KD values were calculated using the following 1:1 binding model described in BIACORE® T100 Software Handbook BR1006-48 Edition AE.

Test [14] concerns the target T12, cynomolgus monkey FcγRIIb extracellular domain with C-terminal His-tag (cynomolgus monkey).
T12 construct: also called cyno FcgRIIb; cynoFcγRIIb
T12 chain: T2 chain
Kind of test: SPR (Biacore), antibody captured, FcgR as analyte. As to the method:
as §1

Test [15] concerns the target T13, cynomolgus monkey FcγRIIb extracellular domain with C-terminal His-tag (cynomolgus monkey).
T13 construct: also called cyno FcgRIIb; cynoFcγRIIb
T13 chain: T2 chain
Kind of test: SPR (Biacore), KD of SG1 / KD of variant.

Test [16] has as its target T14, human FcγRIIaR extracellular domain with C-terminal His-tag (human, UniProt P12318 34-217).
T14 construct: also called human FcgRIIaR; FcγRIIa (type R)
T14 chain: T4 sequence with H134R
Kind of test: SPR (Biacore), KD of SG1 / KD of variant.

The target in test [17] is T6, human FcγRIIaH extracellular domain …. In words: SPR (Biacore), antibody captured, FcgR analyte.
Test [18] concerns the target T15, cynomolgus monkey FcγRIIa3 extracellular domain, His-tagged (cynomolgus monkey).
T15 construct: also called cyno FcgRIIa3; cynoFcγRIIa3; not shown: His-tag added to the C-terminus
T15 chain: T1 chain
Kind of test: SPR (BIACORE), antibody captured on chip, soluble FcgR as analyte, 25 C. As to the method: as §1

The target in test [19] is T16, human FcγRIIb extracellular domain, His-tagged (human, UniProt P31994 43-217).
T16 construct: also called human FcgRIIb; not shown: His-tag added to the C-terminus
T16 sequence: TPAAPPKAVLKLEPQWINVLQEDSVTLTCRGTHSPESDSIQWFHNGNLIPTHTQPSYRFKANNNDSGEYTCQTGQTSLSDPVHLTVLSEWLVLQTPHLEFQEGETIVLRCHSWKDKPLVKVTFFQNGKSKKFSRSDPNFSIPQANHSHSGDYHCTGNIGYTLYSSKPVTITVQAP
Described as above. As to the method: as §1

B1: M103205H795-MY050/M103202L889-SK1 (antibody, human IgG1, kappa, name in EU numbering)
heavy: QVTLKESGPVLVKPTETLTLTCTVSGIDLSHDDISWVRQAPGKGLEWVGIISYAGSTYYASWAKGRLTISKDTSKNQVVLTMTNMDPVDTATYYCARGVPAYSHGGDLWGQGTLVTVSSASTKGPSVFPLAPSSKSTSGGTAALGCLVKDYFPEPVTVSWNSGALTSGVHTFPAVLQSSGLYSLSSVVTVPSSSLGTQTYICNVNHKPSNTKVDKKVEPKSCDKTHTCPPCPAPELLNGPSVFLFPPKPKDTLMISRTPEVTCVVVDVAEEDPEVKFNWYVDGVEVHNAKTKPREEQYNSTYRVVSVLTVLHQDWLNGKEYKCKVSNKALPAPIEKTISKAKGQPREPQVYTLPPSREEMTKNQVSLTCLVKGFYPSDIAVEWESNGQPENNYKTTPPVLDSDGSFFLYSKLTVDKSRWQQGNVFSCSVMHEALHNHYTQKSLSLSP
light: DIVMTQSPATLSLSPGERATLSCTSSQSVYHANWLSWFQQKPGQPPKLLIYWASTLAYGVPSRFSGSGSGTDFTLTISSLQPEDAATYYCAGGYGGGRYAFGQGTKVEIKRTVAAPSVFIFPPSDEQLKSGTASVVCLLNNFYPREAKVQWKVDNALQSGNSQESVTEQDSKDSTYSLSSTLTLSKADYEKHKVYACEVTHQGLSSPVTKSFNRGEC
notes: Fc variant of MS1032LO06-SG1; positions in EU numbering
Consider B1, for which the “KD fold (SG1 = 1)” value in test [1] came to 0.5 fold; in test [2] it was 1.3 fold; in [3], 0.21 fold; in test [4], 0.3 fold. Also, binding in [5] was put at a Kd of 1.7 µM.

B2: M103205H795-MY472/M103202L889-SK1 (antibody)
chain 1: B1 heavy with A233S, N238T, A269S, E270D, A332K
chain 2: B1 light
Turning to B2, the results for the “KD fold (SG1 = 1)” value in test [6] and in test [7] were 1.3 fold and 2.8 fold, respectively. For the same molecule, in [8], the Kd was 2.3 µM.

B3: M103205H795-MY447/M103202L889-SK1 (antibody, human IgG1, kappa)
heavy: B1 heavy with P234I, N238T, A269S, E270D, A332K
light: B1 light
notes: Substitutions in EU numbering on SG1
On to B3, for which the “KD fold (SG1 = 1)” value in [9] stood at 5.6 fold. Besides, the dissociation constant (Kd) in test [10] turned out to be 1.5 µM.

B4: M103205H795-MY141/M103202L889-SK1 (antibody, human IgG1, kappa, name in EU numbering)
heavy: B1 heavy with E270H, P398M
light: B1 light
notes: as for B1
Take B4: the “KD fold (SG1 = 1)” value in [1] stood at 0.5 fold; in test [3], 0.08 fold; in [4] it was 0.6 fold. Also, the equilibrium dissociation constant (Kd) in test [11] is 2.2 µM; in [5], 4.7 µM; in [12], 1.3 µM.

B5: M103205H795-MY523 / M103202L889-SK1 (antibody, human IgG1, kappa, name in EU numbering)
heavy: B1 heavy with A233G, N238T, S241V, A269S, E270D, Q297L, A332K
light: B1 light
As for B5, in test [13], the “KD fold (SG1 = 1)” value is 5.2 fold. In test [14], this molecule returned a dissociation constant (Kd) of 0.48 µM.

B6: M103205H795-MY147/M103202L889-SK1 (antibody, human IgG1, kappa, name in EU numbering)
heavy: B1 heavy with L237W, A269S, P398M
light: B1 light
notes: as for B1
For B6, the “KD fold (SG1 = 1)” value in test [2] was found to be 1.9 fold; in test [3] it was 0.07 fold. This molecule also came in with a Kd in test [5] of 5.5 µM.

B7: M103205H795-MY450/M103202L889-SK1 (antibody, human IgG1, kappa)
heavy: B1 heavy with P234M, N238T, A269S, E270D, A332K
light: B1 light
notes: as for B3
B7: the “KD fold (SG1 = 1)” value in [6] was found to be 2.5 fold. Also, the Kd in [8] amounted to 1.3 µM.

B8: M103205H795-MY475/M103202L889-SK1 (antibody)
heavy: B1 heavy with A233W, N238T, A269S, E270D, A332K
light: B1 light
notes: as for B3
In the case of B8, the “KD fold (SG1 = 1)” value was found to be 5.1 fold in [9], 6.7 fold in test [15] and 5.2 fold in test [16]. Further, the Kd in test [10] worked out at 2.5 µM; in test [17] it was 0.9 µM.

B9: M103205H795-MY265/M103202L889-SK1 (antibody, human IgG1, kappa, name in EU numbering)
heavy: B1 heavy with N238T, A269S, E270D, A332K
light: B1 light
notes: also called MS1032LO06-MY265
On to B9, for which the Kd in test [18] is 43 µM; in test [19], 2.7 µM.

B10: M103205H795-MY446/M103202L889-SK1 (antibody, human IgG1, kappa)
heavy: B1 heavy with P234H, N238T, A269S, E270D, A332K
light: B1 light
notes: as for B3
On to B10, for which, in [6], the “KD fold (SG1 = 1)” value was 1.5 fold.

A word on the Kd: it is the constant that tells how readily two partners part at equilibrium.
